According to the Human Domainome abundance scans (Beltran et al. 2025):

B1: Nucleolar transcription factor 1, residues 408 to 469; numbered along this chain, P17480 (parent)
chain: KRPVSAMFIFSEEKRRQLQEERPELSESELTRLLARMWNDLSEKKKAKYKAREAALKAQSER
B2: Zinc finger MYM-type protein 3, residues 589 to 668; numbered along this chain, Q14202 (parent)
chain: LSCHYCHSLFSGKPEVLDWQDQVFQFCCRDCCEDFKRLRGVVSQCEHCRQEKLLHEKLRFSGVEKSFCSEGCVLLYKQDF

Variants of: B1
Test: abundance fitness (aPCA) (normalised: wild type 0, dead -1); higher = more abundant; growth selection in yeast, the domain comes from the species named
Settings: Homo sapiens

Abundance fitness: each site, then its substitutions
F8: N 0.024; C -0.069; M -0.003; T -0.066; Y -0.001; Q -0.236; V -0.027; G 0.029; P -0.235; A -0.092; R 0.005; I -0.02; S -0.039; D -0.023; W -0.03; E 0.02; K -0.004
I9: P -0.365; N -0.223; D -0.484; H -0.518; A -0.095; S -0.191; Q -0.202; E -0.38; L -0.027; K -0.258; F -0.113; C -0.074; G -0.43; R -0.172
M7: L -0.086; F -0.015; G -0.131; P -0.053; D -0.144; Q 0.012; W -0.178; E -0.045; S -0.056; C -0.066; H -0.028; V -0.058; T -0.22; A -0.038; Y -0.012; N -0.086; K -0.015; R -0.043; I -0.151
P3: L -0.068; H -0.061; S -0.014; F -0.021; Q -0.011; A -0.137; I 0.036; C -0.264; W -0.297; V -0.02; D -0.04; R -0.095; Y -0.071; E -0.059; T 0.021; G -0.083
R2: V -0.049; M -0.13; S -0.072; A -0.151; D -0.109; N -0.003; W -0.453; L -0.215; G -0.204; T -0.143; C -0.178; Y 0.01; Q -0.317; E -0.132; I -0.158; H -0.025; F -0.043
V4: Y -0.099; S -0.082; A -0.061; K -0.053; W -0.602; C -0.213; F -0.156; N -0.104; H -0.172; I -0.018; D -0.011; L -0.031; E 0.037; T -0.111; Q -0.099; G -0.094; R -0.24; P -0.238; M -0.031
K1: I 0; E -0.139; G -0.08; A -0.287; F -0.245; M 0.004; T -0.06; R -0.199; C -0.367; L -0.048; Y -0.105; W -0.205; Q -0.196; V -0.136; S -0.276; N -0.191; D 0.006; H -0.212
A6: V -0.488; Q -0.331; D -0.191; G -0.045; Y -0.155; S -0.191; F -0.573; H -0.534; T -0.44; E -0.17; M -0.418; L -0.661; W -0.453; R -0.401; C -0.225; P -0.306
S5: Q -0.115; P -0.112; W -0.455; T -0.042; M -0.196; E 0.042; D -0.02; Y -0.146; N 0.047; C -0.148; L -0.164; K -0.041; V -0.187; I -0.178; G -0.031

Variants of: B2
Test: as above
Settings: Homo sapiens

Abundance fitness of substitutions, site by site:
E70: I 0.781
Q78: C -0.892; V -0.833
C45: R -0.742; D -0.658; Q -1; L -0.867; E -1.07
S43: G 0.59
Y5: T -0.009; E -0.081
H7: E 0.158; W -0.187; D 0.226; S 0.237
C48: L -0.578
